{"source": "paper PMC4423205", "test_in_all_cases": "SPR", "conditions_in_all_cases": "all L-ribonucleotides (L-RNA, mirror image); SPR (Biacore 2000), chemokine immobilized on CM4/CM5, physiological running buffer, 37 C; complex formation in 20 mM HEPES pH 7.4, 100 mM NaCl, 5 mM KCl, 1 mM …", "key": {"[1]": {"target": "CCL11 (eotaxin) (Homo sapiens) (UniProt P51671)", "sequence (P51671 24-97)": "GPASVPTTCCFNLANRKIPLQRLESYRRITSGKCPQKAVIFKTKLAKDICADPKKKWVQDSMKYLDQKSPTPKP"}, "[2]": {"target": "CCL2 S63F S86F (Homo sapiens) (UniProt P13500)", "sequence (P13500 24-99 S86F)": "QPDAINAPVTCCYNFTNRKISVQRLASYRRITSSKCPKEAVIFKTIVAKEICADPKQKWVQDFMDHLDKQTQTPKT"}, "[3]": {"target": "CCL2 S21P S44P (Homo sapiens) (UniProt P13500)", "sequence (P13500 24-99 S44P)": "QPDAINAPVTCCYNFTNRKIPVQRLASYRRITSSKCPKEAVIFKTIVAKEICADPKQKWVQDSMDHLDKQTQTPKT"}, "[4]": {"target": "CCL13 (MCP-4) (Homo sapiens) (UniProt Q99616)", "sequence (Q99616 24-98)": "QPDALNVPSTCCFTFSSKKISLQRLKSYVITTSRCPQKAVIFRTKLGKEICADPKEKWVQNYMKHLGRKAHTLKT"}, "[5]": {"target": "CCL2 K19A K42A (Homo sapiens) (UniProt P13500)", "sequence (P13500 24-99 K42A)": "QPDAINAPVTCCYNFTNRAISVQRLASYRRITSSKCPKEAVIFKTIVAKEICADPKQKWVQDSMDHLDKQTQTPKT"}, "[6]": {"target": "T1, CCL8 (MCP-2) (Homo sapiens) (UniProt P80075)", "T1 sequence": "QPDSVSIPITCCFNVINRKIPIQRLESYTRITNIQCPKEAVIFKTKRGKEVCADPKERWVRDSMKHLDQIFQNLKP"}, "[7]": {"target": "CCL2 R24A R47A (Homo sapiens) (UniProt P13500)", "sequence (P13500 24-99 R47A)": "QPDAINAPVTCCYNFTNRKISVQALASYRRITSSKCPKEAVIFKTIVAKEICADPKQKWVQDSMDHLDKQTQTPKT"}, "[8]": {"target": "CCL2 R18A R41A (Homo sapiens) (UniProt P13500)", "sequence (P13500 24-99 R41A)": "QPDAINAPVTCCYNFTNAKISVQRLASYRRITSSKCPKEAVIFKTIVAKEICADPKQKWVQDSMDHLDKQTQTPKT"}, "[9]": {"target": "CCL2 (MCP-1), wild type (Homo sapiens) (UniProt P13500)", "sequence (P13500 24-99)": "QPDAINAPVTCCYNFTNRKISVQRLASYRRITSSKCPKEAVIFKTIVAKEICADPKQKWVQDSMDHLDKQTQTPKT"}, "[10]": {"target": "CCL2 S63Y S86Y (Homo sapiens) (UniProt P13500)", "sequence (P13500 24-99 S86Y)": "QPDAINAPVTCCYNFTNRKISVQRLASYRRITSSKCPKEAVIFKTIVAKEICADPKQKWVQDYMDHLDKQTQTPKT"}}, "data": [{"sequence": "GCACGUCCCUCACCGGUGCAAGUGAAGCCGUGGCUCUGCG [NOX-E36 L-aptamer (Spiegelmer, without PEG)]", "values": [{"measurement": "Kd", "setting": "[1]", "value": 3.06, "unit": "nM"}, {"measurement": "Kd", "setting": "[2]", "value": 54.4, "unit": "nM"}, {"measurement": "Kd", "setting": "[3]", "value": 7.94, "unit": "nM"}, {"measurement": "Kd", "setting": "[4]", "value": 22, "unit": "nM"}, {"measurement": "Kd", "setting": "[5]", "value": 4130, "unit": "nM"}, {"measurement": "Kd", "setting": "[6]", "value": 3.35, "unit": "nM"}, {"measurement": "Kd", "setting": "[7]", "value": 8280, "unit": "nM"}, {"measurement": "Kd", "setting": "[8]", "value": 14.1, "unit": "nM"}, {"measurement": "Kd", "setting": "[9]", "value": 1.32, "unit": "nM"}, {"measurement": "Kd", "setting": "[10]", "value": 74.4, "unit": "nM"}]}]}
